# Measured values from patent US8637739B2, “Anti-nematode peptides and methods of use thereof” (Pioneer Hi Bred International Inc, priority 2011, dated 2014).
# B1: RX025: small, active 25 kDa Sphingobacterium spiritivorum protein; putative twin arginine translocation pathway signal protein (protein, listed as Sphingobacterium spiritivorum)
# chain: MHRREALQRVALLMGGTVIGANLFLEGCSRSASKDTAKLFEKDSVNFLGDLAEAILPKTSTPGAKEAGVGEFIPVMIRDCYADTEQKVFLDGINTVDERAKKEFGKKFQELSKEDQTKFVNILDKEASEYNAKQAEATKAQREKDALKQNEMYRVPKSDPPHWFTMFKQLTLTGFFTSELGATKALRYVKIPGKFDGNYPYKKGEHAWA
# Tested on: C. elegans
# Test: C. elegans feeding assay
# Assay type: in vivo, Caenorhabditis elegans
# Method: The 75G5 strain was obtained from a biodiverse collection of bacterial strains. The strain was grown in Tryptic soy medium overnight at 20° C., with shaking at 225 rpm. 5 to 30 μL of the liquid culture was added into assay wells in 96-well plates. Each assay well contained 120 μL of liquid with ˜50 L1 staged C. elegans, 30 μg/mL tetracycline, 30 μg/mL chloramphenicol, and S-medium. E. coli strain OP50 was used as a negative control. Forty-eight hours later, the assay plates were scored under a microscope by checking the worm's growth and development.
# To further characterize the nematicidal activity, the 75G5 strain was cultured in 50 ml Tryptic soy medium at 20° C. for 18 h, with 225 rpm shaking. The cell pellet was collected after centrifugation at 700 rpm and then stored at −80 C. Total protein was extracted from the cell pellet using the B-PER II Bacterial Protein Extraction Reagent from Thermo. The lysate was centrifuged twice at 10,000 rpm and the final supernatant was collected as the total protein sample.
# The expression constructs were then transformed into E. coli TOP10 strain with carbenicillin selection. For protein expression, an E. coli overnight culture was diluted by 50 fold and grown at 37° C. for 2.5 hours (to OD600 ˜0.5). Protein expression was induced by adding 0.8 mM IPTG and the culture was grown for another 5 hours at 30° C. […]
molecule,measurement,setting,value
B1,nematicidal activity (worm development),"E. coli TOP10 strains expressing the RX025 gene from pMAL (MBP fusion) and pQE80L, IPTG induced","inhibited worm development, arresting worms at the L1 stage"
same,nematicidal activity of purified protein bands,proteins in pooled Mono Q/Mono S fractions of strain 75G5 membrane associated proteins,active
